Measurements published in patent US20260250410A1, “ANTIBODY AND USE THEREOF” (SICHUAN HUIYU PHARMACEUTICAL CO., LTD., priority 2022, published 2026).

Key:
Format in all cases: cell-based, human
[1] = test system: MDA-MB-231 cells; assay: Flow cytometry binding of murine monoclonal antibody to tumor cells; conditions: cells with high expression of CDCP1
Method: (§1) Flow cytometry was used to detect the binding capacity of antibody to tumor cells. […] 2.0×10^4 tumor cells were added per well, respectively, and 50 μL (PBS+2% FBS) were added, and after blocking at room temperature with an Fe blocker (Human TruStain FcX™, Biolegend, 422302) for 10 mins, an anti-CDCP1 murine monoclonal antibody at a final concentration of 200 nM was added. The obtained mixture was subjected to a 3-fold serial dilution across 8 concentration points, and incubated at 4° C. for 30 mins, and then incubated with a secondary antibody (PE anti-human IgG Fc Antibody, Biolegend, 410708), detection was performed using a flow cytometer.

[2] = test system: PC3 cells; assay: as above; conditions: cells with high expression of CDCP1
Method: as §1

[3] = test system: MDA-MB-231 cells; assay: Endocytosis capacity of single B cell antibodies; conditions: MDA-MB-231, 2 h at 37° C., antibody 1.5 μg/mL
Method: The endocytosis capacity of the antibody was detected for 0.5 to 2 hours. MDA-MB-231 cells were subjected to digestion with 5 mM EDTA, and plated at 2×10^4 cells/well after cell counting. After adding an Fc blocker (Human TruStain FcX™, Biolegend, 422302) and blocking at room temperature for 10 mins, a test antibody (1.5 μg/mL) was added, and the mixture was incubated at 4° C. for 30 mins, centrifuged, and washed twice with PBS+2% FBS, then the cells were divided into four equal portions (labeled as 0 h, 0.5 h, 1 h, 2 h), cells labeled as 0.5 h, 1 h, 2 h time points were added to 200 μL of cell culture medium, and cultured at 37° C. for 0.5 h, 1 h, 2 h, respectively. Cells at 0 h point were centrifuged, a secondary antibody (PE anti-human IgG Fc Antibody, Biolegend, 410708) was added, and the mixture was incubated at 4° C. for 30 mins, centrifuged, and washed twice with PBS+2% FBS, and detection was performed using a flow cytometer. After incubation of cells labeled as 0.5 h, 1 h, and 2 h points at 37° C. was completed, a secondary antibody was added (in the same steps as those at 0 h point), Geo-MFI of the signal under the same voltage was collected as detection signal at 0 h, and antibody internalization rate was calculated according to the following equation: Internalization (%)=(Geo-MFI (0 h)-Geo-MFI (2 h))/Geo-MFI (0 h)×100%.

| EC50 [1] | EC50 [2] | Molecule | Internalization MDA-MB-231 (%) [3] |
| --- | --- | --- | --- |
| 0.93 nM | 0.91 nM | SB8: anti-CDCP1 antibody by single B cell technique; VH SEQ ID NO: 278, VL SEQ ID NO: 328 (antibody, V domains shown, SB8 heavy chain variable region; SB8 light chain variable region) VH: QVTLKESGPGILKPSQTLSLTCSFSGFSLSTSGVGVGWIRQPSGKGLEWLAHIWWDDEKYYNPSLKSHFTISKDTSRNQVFLKITSVDTADTATYYCVKEGDGMDYWGQGTSVTVSS VL: QAVVTQESALTTSPGETVTLTCRSSTGAVATSNYANWVQEKPDHLFTGLIGGTNNRVPGVPARFSGSLIGDKAALTITGAQTEDEAIYFCALWYSNHWVFGGGTKLTVL | – |
| – | – | SB1: anti-CDCP1 antibody by single B cell technique; VH SEQ ID NO: 271, VL SEQ ID NO: 321 (antibody, V domains shown, SB1 heavy chain variable region; SB1 light chain variable region) VH: QVQLQQSGPDLVRPGESVKISCKGSGYTFTDHAIHWVRQSHAKSLEWIGVISFSYDNTKYNQNFKGKATMTVDKSSNTAYMELARLTSEDSAIYYCARDCYGSNRGYFDYWGQGTTLTVSS VL: DIRMTQSPSSMYASLGERVTITCKASQDINRFLSWFLQRPGKAPKTLIYRANNLVEGVPSRFSGSGSGQDYSLIISNLEYEDMGIYYCLQYDEFPRTFGGGTKLEIK | 34.65% |
| – | – | SB7: anti-CDCP1 antibody by single B cell technique; VH SEQ ID NO: 277, VL SEQ ID NO: 327 (antibody, V domains shown, SB7 heavy chain variable region; SB7 light chain variable region) VH: QVQLQQSGPELVSPGESVKISCKGSGYTFTDYAVHWVKQSHSKSLEWIGVKSVYYGITKYSQNFKDKATMTVDKSSSTAYMELARLTSEDSAIYYCARDSYGSSRGYFDYWGQGTTLTVSS VL: DIKMTQSPSSIYVSPGERVTITCKASQDINSFLSWFQQKPGKSPKTLIYRANRLVDGVPSRFSGSGSGQDYSLTISSLEYEDMGIYYCLQYDEFPRTFGGGTKLEIK | 31.67% |
